Test results from PMC11012335.

How the values were obtained:
Assay in all cases: EMSA
[1] = molecular target: Hfq K56A K56A (Escherichia coli K-12 MG1655) (UniProt P0A6X3); settings: EMSA: 20 mM Tris-HCl pH 7.6, 0.5 M NaCl, 1 mM EDTA, 1% glycerol, 20 min at 25 C; native PAGE in 0.5x TBE at 4 C
[2] = molecular target: Hfq H57A H57A (Escherichia coli K-12 MG1655) (UniProt P0A6X3); settings: EMSA: 20 mM Tris-HCl pH 7.6, 0.5 M NaCl, 1 mM EDTA, 1% glycerol, 20 min at 25 C; native PAGE in 0.5x TBE at 4 C
[3] = molecular target: Hfq Q8A Q8A (Escherichia coli K-12 MG1655) (UniProt P0A6X3); settings: EMSA: 20 mM Tris-HCl pH 7.6, 0.5 M NaCl, 1 mM EDTA, 1% glycerol, 20 min at 25 C; native PAGE in 0.5x TBE at 4 C
[4] = molecular target: Hfq K56A/H57A K56A;H57A (Escherichia coli K-12 MG1655) (UniProt P0A6X3); settings: EMSA: 20 mM Tris-HCl pH 7.6, 0.5 M NaCl, 1 mM EDTA, 1% glycerol, 20 min at 25 C; native PAGE in 0.5x TBE at 4 C
[5] = molecular target: Hfq Y25D* Y25D (Escherichia coli K-12 MG1655) (UniProt P0A6X3); settings: EMSA: 20 mM Tris-HCl pH 7.6, 0.5 M NaCl, 1 mM EDTA, 1% glycerol, 20 min at 25 C; native PAGE in 0.5x TBE at 4 C
[6] = system: Hfq Y25D* (Escherichia coli K-12 MG1655); settings: EMSA: 20 mM Tris-HCl pH 7.6, 0.5 M NaCl, 1 mM EDTA, 1% glycerol, 20 min at 25 C, native PAGE in 0.5x TBE at 4 C
[7] = system: Hfq K56A/H57A (Escherichia coli K-12 MG1655); settings: EMSA: 20 mM Tris-HCl pH 7.6, 0.5 M NaCl, 1 mM EDTA, 1% glycerol, 20 min at 25 C, native PAGE in 0.5x TBE at 4 C
[8] = system: Hfq H57A (Escherichia coli K-12 MG1655); settings: EMSA: 20 mM Tris-HCl pH 7.6, 0.5 M NaCl, 1 mM EDTA, 1% glycerol, 20 min at 25 C, native PAGE in 0.5x TBE at 4 C
[9] = system: Hfq K56A (Escherichia coli K-12 MG1655); settings: EMSA: 20 mM Tris-HCl pH 7.6, 0.5 M NaCl, 1 mM EDTA, 1% glycerol, 20 min at 25 C, native PAGE in 0.5x TBE at 4 C
[10] = system: Hfq Q8A (Escherichia coli K-12 MG1655); settings: EMSA: 20 mM Tris-HCl pH 7.6, 0.5 M NaCl, 1 mM EDTA, 1% glycerol, 20 min at 25 C, native PAGE in 0.5x TBE at 4 C

Substance: GGGAACACAUCAGAUUUCCUGGUGUAACGAAUUUUUUAAGUGCUUCUUGCUUAAGCAAGUUUCAUCCCGACCCCCUCAGGGUCGGGAUUU [DsrA]
- binding signal (% of WT Hfq binding) [1]: 24.4
- binding signal (% of WT Hfq binding) [2]: 66.5
- binding signal (% of WT Hfq binding) [3]: 46.9
- binding signal (% of WT Hfq binding) [4]: 13.2
- binding signal (% of WT Hfq binding) [5]: 163

Substance: RNA I FL
- binding signal (% of WT Hfq binding) ([6]; 130/260 nM Hfq monomer): 125
- binding signal (% of WT Hfq binding) ([7]; 130/260 nM Hfq monomer): 13.8
- binding signal (% of WT Hfq binding) ([8]; 130/260 nM Hfq monomer): 72.7
- binding signal (% of WT Hfq binding) ([9]; 130/260 nM Hfq monomer): 36.1
- binding signal (% of WT Hfq binding) ([10]; 130/260 nM Hfq monomer): 86.5

Substance: DsrA
- binding signal (% of WT Hfq binding) ([6]; 43/174 nM Hfq monomer): 163
- binding signal (% of WT Hfq binding) ([7]; 43/174 nM Hfq monomer): 13.2
- binding signal (% of WT Hfq binding) ([8]; 43/174 nM Hfq monomer): 66.5
- binding signal (% of WT Hfq binding) ([9]; 43/174 nM Hfq monomer): 24.4
- binding signal (% of WT Hfq binding) ([10]; 43/174 nM Hfq monomer): 46.9
